These results are taken from patent US20260166131A1, “METHOD FOR PROMOTING PATHOLOGICAL TDP-43 PROTEIN DEGRADATION, AND DRUG” (TALENGEN INTERNATIONAL LIMITED, priority 2022, published 2026).

“And” between values parts separate entries of the source, which are not always exact repeats. Equal values may be shown once. “Also recorded” adds a separate entry of the source.

Series [1] is described as follows: Brain tissue plasminogen level after tail vein injection in SOD1-G93A mice (ELISA).
Method: Twenty-seven 10-15 week-age B6.Cg-Tg (SOD1-G93A) 1Gur/J (SOD1-G93A) mice (pedigree number: 004435) (referred to as SOD1-G93A mice) (breeding mice were purchased from Jackson Laboratory, USA) were randomly divided into three groups: three in the vehicle control group, 12 in the 6 mg/kg plasminogen group, and 12 in the 50 mg/kg plasminogen group. The mice in the vehicle control group were injected with vehicle at 5 ml/kg by tail vein, the mice in the 6 mg/kg plasminogen group were injected with plasminogen (1.2 mg/ml) at 6 mg/kg body weight by tail vein, and the mice in the 50 mg/kg plasminogen group were injected with plasminogen (10 mg/ml) at 6 mg/kg body weight by tail vein.
Brain tissue was obtained from the mice sacrificed in Example 11, homogenizing and detecting according to the instructions of Human Plasminogen ELISA Kit (manufacturer: AssayMax, catalog number: EP1200-1). The human plasminogen working standard in the kit was used as the internal standard to calibrate the concentration of each sample. The calibrated concentration was divided by the total protein concentration to calculate the amount of plasminogen per unit of total protein in each sample and perform statistical analysis.
The target in the next series is TDP-43 (Mus musculus, UniProt Q921F2). The experiment in a line: Immunofluorescence co-localization staining of plasminogen and TDP-43 in spinal cord tissue of SOD1-G93A mice. The format is in vivo. Also on record: from tissue; host or cells: mouse spinal cord, gluteal muscle, brain, kidney cell nuclei. Conditions: 1 mg/mouse tail vein every day. The procedure: Five wild-type male mice and nine male SOD1-G93A mice of similar week-age were selected. Wild-type mice served as the blank control group, and SOD1-G93A mice were observed and recorded from the time of hind leg tremor when they became ill at week 14, and the onset time of each mouse was recorded. Administering to mice 14 days after the onset of the disease. All mice were randomly divided into a vehicle group and a plasminogen group according to the onset of the disease: 5 mice in the vehicle group, which were injected with 0.1 ml of vehicle (sodium citrate buffer)/mouse by tail vein every day; 4 mice in the plasminogen group, which were injected with 1 mg of plasminogen/0.1 ml of vehicle/mouse by tail vein every day. The vehicle and plasminogen were administered continuously under SPF environment, and the samples were collected at the near-death stage. The longest administration was 61 days. The spinal cord tissue collected was fixed in formalin fixative solution. The fixed tissues were dehydrated with gradient alcohol and transparentized with xylene before being embedded in paraffin. The thickness of tissue sections was 3 μm, and the sections were dewaxed and rehydrated and then washed once. The sections were immersed in antigen retrieval working solution (0.01 M sodium citrate buffer) to perform microwave retrieval: preheating for 5 minutes, high heating for 2 minutes, and low heating for 15 minutes. The tissue was circled with a PAP pen, then incubating in 3% hydrogen peroxide for 15 minutes, and washing twice with 0.01 M PBS for 5 minutes each time, blocking with 5% normal goat serum (Vector laboratories, Inc., USA) for 30 minutes. After the time for blocking is up, the goat serum is discarded, adding anti-plasminogen antibody (self-produced), then incubating at 4° C. overnight, and washing twice with 0.01M PBS for 5 minutes each time. The goat anti-rabbit IgG (HRP) antibody (Abcam) secondary antibody was added to incubate at room temperature for 1 hour, then washing twice with 0.01M PBS for 5 minutes each time. The green fluorescence color development of the corresponding anti-plasminogen secondary antibody was performed according to the instructions of the XTSA520 IHC kit (Alpha X Biotech, AXT6202500), washing 3 times with PBS for 5 minutes each time. The above antigen retrieval and blocking procedures were repeated, and then anti-TDP-43 antibody (Proteintech, 12892-1-AP) staining was performed, then incubating at 37° C. for 1 hour, washing 3 times with PBS for 5 minutes each time. […] The red fluorescence color development of the corresponding anti-TDP-43 secondary antibody was performed according to the instructions of the XTSA620 IHC kit (Alpha X Biotech, AXT6502500), washing 3 times with PBS for 5 minutes each time. […]
TDP-43, sequence (Q921F2 whole entry): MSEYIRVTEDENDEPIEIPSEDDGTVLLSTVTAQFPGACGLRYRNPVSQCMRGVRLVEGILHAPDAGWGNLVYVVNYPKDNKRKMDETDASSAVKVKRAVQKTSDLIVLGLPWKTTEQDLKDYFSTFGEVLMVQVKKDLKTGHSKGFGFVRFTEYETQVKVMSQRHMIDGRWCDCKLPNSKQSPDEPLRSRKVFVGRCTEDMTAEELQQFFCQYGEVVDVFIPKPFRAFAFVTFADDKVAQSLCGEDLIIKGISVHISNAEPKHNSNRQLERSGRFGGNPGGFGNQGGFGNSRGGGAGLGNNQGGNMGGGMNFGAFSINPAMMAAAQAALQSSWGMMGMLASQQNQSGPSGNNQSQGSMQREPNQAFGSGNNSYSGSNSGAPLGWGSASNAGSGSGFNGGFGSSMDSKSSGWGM

B1: plasminogen: human plasminogen purified from human donor plasma, in which human Lys-plasminogen and Glu-plasminogen are >98% (protein)
chain: KVYLSECKTGNGKNYRGTMSKTKNGITCQKWSSTSPHRPRFSPATHPSEGLEENYCRNPDNDPQGPWCYTTDPEKRYDYCDILECEEECMHCSGENYDGKISKTMSGLECQAWDSQSPHAHGYIPSKFPNKNLKKNYCRNPDRELRPWCFTTDPNKRWELCDIPRCTTPPPSSGPTYQCLKGTGENYRGNVAVTVSGHTCQHWSAQTPHTHNRTPENFPCKNLDENYCRNPDGKRAPWCHTTNSQVRWEYCKIPSCDSSPVSTEQLAPTAPPELTPVVQDCYHGDGQSYRGTSSTTTTGKKCQSWSSMTPHRHQKTPENYPNAGLTMNYCRNPDADKGPWCFTTDPSVRWEYCNLKKCSGTEASVVAPPPVVLLPDVETPSEEDCMFGNGKGYRGKRATTVTGTPCQDWAAQEPHRHSIFTPETNPRAGLEKNYCRNPDGDVGGPWCYTTNPRKLYDYCDVPQCAAPSFDCGKPQVEPKKCPGRVVGGCVAHPHSWPWQVSLRTRFGMHFCGGTLISPEWVLTAAHCLEKSPRPSSYKVILGAHQEVNLEPHVQEIEVSRLFLEPTRKDIALLKLSSPAVITDKVIPACLPSPNYVVADRTECFITGWGETQGTFGAGLLKEAQLPVIENKVCNRYEFLNGRVQSTELCAGHLAGGTDSCQGDSGGPLVCFEKDKYILQGVTSWGLGCARPNKPGVYVRVSRFVTWIEGVMRNN
For B1, in series [1] (SOD1-G93A mice, tail vein), the “plasminogen level in brain tissue, 50 mg/kg group compared with 6 mg/kg group” value is on record as “significantly higher”. Besides, in series [1] (SOD1-G93A mice, tail vein 50 mg/kg and 6 mg/kg), the “time within which plasminogen is almost completely metabolized (brain tissue)” value was in the range of 12 to 24 h. For the same molecule, the “plasminogen level in brain tissue” value in series [1] (SOD1-G93A mice, tail vein injection of 6 mg/kg) is reported as “increase significantly”; in series [1] (SOD1-G93A mice, tail vein injection of 50 mg/kg) it was “increase significantly”. Also, in series [1] (mouse, in vivo), the “ratio of brain tissue plasminogen level to blood plasminogen level” value was 3.47% and 4.94% and 6.79%. The “subcellular presence of plasminogen in spinal cord tissue” value with TDP-43 is “present in the cytoplasm (as indicated by A) and in the nucleus; also recorded: present in the cytoplasm (as indicated by Δ) and in the nucleus”. Moreover, in the series with TDP-43 (immunofluorescence, vs vehicle group), the “level of TDP-43 in spinal cord tissue” value is on record as “lower than that in the vehicle group; also recorded: lower than that of the vehicle group”. Further, the “positive staining of plasminogen in spinal cord tissue” value in the series with TDP-43 (up to 61 days, vs vehicle group) was “significantly more”. Also, the “co-localization of plasminogen and TDP-43 in spinal cord tissue” value in the series with TDP-43 (vs vehicle group) is “more than that in the vehicle group”.
